A protein production outcome set (Wang et al. 2014)

Test: label from the status in PepcDB records

Q: Which protein production does the source give for “MFFRSIRFSLTLWYAVTLAVILVLFSSFIYLVLSNQLNKGIDRELLTVAEAVASPTLEPFRHAAPSVFDQVLEDFIGTRLTGKHVQVLDGSGAVAASSKSMEELRIPLGKTALRRVQAGKVSYETRVNLDVYPVRTIVYPIMTDGRLDQIVLVGTSMRGPAETLEKVQLVFAVSIPLALILWSLGGWFLAGRALKPVDLITRSARKITAENLGLRLEVINPQDEIGRLATTFNDTLERLENAFNRIRQFTGDVSHELRTPLTILRGEAEVGLKWAKEPEEFRELLRSNLEEINRMSKIIETLLELSRVEGGVKLELADLDLSDLLAELVQQSRLIAPDKSLRIAFVGQEPVTILGDWLRLRQVFMNLLDNAVKYTPADGEISVVVDTTGDSARVAIIDSGPGIPPEDLPHIFERFYRVDKARNRADGGCGLGLSLVKTFVEAHGGRIEVVSEAGKGSIFTVLLPRVVAG” here?
A: not failed

Q: With “MTGTPQRSHPQPERTFVTIDFAALPDDFLWGTATSAYQIEGAVAEDGRSPSIWDTFSHTPGKIDNGDHGDVACDHYHRTHEDIELMRRLGTNAYRLSVAWPRVVPGGDGPVNAKGLAFYDRLVDDLLAAGITPSVTLYHWDLPQVLQDRGGWPERDTAEHFAAYAAVVAERLGDRVAHWATLNEPLCSAWIGHLEGKMAPGQTDLTAAVRASYHLLLGHGLAMQAIRAAAPDAQVGIVNNLSTIHAATDREEDLAAARRMDGHTNRWWLDPVHGRGFPQDMREVYGVELPERPGDMRLIGAELDWLGLNYYFPQTVAADPTGPAPQVRTVRRAGVPRTGMDWEIDAGGIEELLLRLTEEYGPRKLYVTENGSSFPDLVRPDGSVDDPERQEYLTAHLAACASAARKGAPLAGYFAWSLLDNFEWAYGYDKRFGLVHVDYATQVRTIKGSGHHYADIIGRARGRERKAA” as the sequence, how does the protein production read?
A: failed

Q: With “MPHASQIVISISLFLMSMVAVAQKTIDIKKFNLVAEQVTELKKTDLVLSLKQLTTFENVLSALTVEQNLVYFKLLAEIQIEQNRYSAAKKTANEGLIIGRRLASPSILMSELLYLRGFSFESLGNIPRATKEYKKGLEVAESLHNKIQVALGLINLGAIAYLTDNYKRSLVLLNDAYNIAGQTDDEELKGTANTELGILYSLLRQGDQSMAYYQQSYKHFKKAGLLLSAHNSLHNIAITHIREKRYEQAITVFKTIIAESNKDTSSDSMFTVYSGMAWAHLKKKDSNIDAAHQYLLLAKQYLQFTEKVDYRLQFYFDEASVLYKLERFDEVLISIARIEKILVNHEDMPKRKRKGYVNIINLKAKVFYKQEKFKQAYETKSRVIALTEKLYENEDNRSIAQVRLKLEAEQADKQNEILNNQKSRYEASFNEAKLENEEQRIYLIISALLALAFAWVLVKLIQSQKKLKVALNVDKLTGTANRRRLMVKSQQAFELAKVKQYHLSLMMINIDHFKGINDSLGHSIGDEVLAKVAFIGANMVRKNDVFGRFSGGEFMVCLPKTNLKLAMETAECIRAAINEHTWQLNNIEKISVSIGVATLTDDSELISLVKRAEEQLYQAKASGKNKVCAQ” as the sequence, how does the protein production read?
A: failed

Q: With “SLKRKLKPKRLQLPPQDVVFEGEAAMNEYTFYRNWVESWLQHIRSYYLLFIDGDPSLSKFFEIEICAHSWKRSTFDQQVFKFGLLWECVDIARSRTVYWQCALGTGHIQEDKVSEATSPFTDDSCTNSCLSRMTGQ” as the sequence, how does the protein production read?
A: failed

Q: With “MIGMDHLAIGTYEGFLIGYDIDTQPNDPKTTTGCTLRYAYAAHERSIRCIAGSFPILASASVDESIKVYQLDQLQELATLYDLQVPVNSVDIQLQGGLLSGGEDGKLVYYPYGGWSKPKYLKGHKGNVHSVALHPTGQICLSVARDKCLKLWKTNGDCVCSLELPDEAFIVKWTEDGQGWVIATQTSFSVHSLQTGLIQQWEYSTRLVCLCALTNDIFVVGGMDGHLRVGENKPIQVHKVDGGSLVKGIGVGRDGCIYSLSSKGVLEMVAPSRQLEIQNGVVKRYIE” as the sequence, how does the protein production read?
A: failed

Q: With “MLLFWVEFIGTFIGLFISAELIAKGADELEEVLGQGITGGILLGFITALPETIFVIIASLGGSLDVAFGSAIGGNILLFTVGAGLVGIVYFWKWKNNLVMDQEYQVENKFLIISTVALVLITLYSKLNVIAGVCLILIYVYYVIYRLRKFKRDKPIAKKEVDYVKISIFMVVGAILLIILSHYFVEQLDQISLSFGIPAVWISLVLSPIAGELEEKISAFRLITLSKKGGSLSLLSFVGSKIENNTVLLGIIGLFGDYSLRPVIPEMVSLILVNVSVLRVLFDRKLTVLESSLLIIAYAVIIIALYYL” as the sequence, how does the protein production read?
A: failed

Q: With “MRQKETTATTRFSLLPGSITRFFLLLIIVLLVTMGVMVQSAVNAWLKDKSYQIVDITHAIQKRVDTWRYVTWQIYDNIAATTSPSSGEGLQETRLKQDVYYLEKPRRKTEALIFGSHDNSTLEMTQRMSTYLDTLWGAENVPWSMYYLNGQDNSLVLISTLPLKDLTSGFKESTVSDIVDSRRAEMLQQANALDERESFSNMRRLAWQNGHYFTLRTTFNQPGHLATVVAFDLPINDLIPPGMPLDSFRLEPDATATGNNENEKEGTDSVSIHFNSTKIEISSALNSTDMRLVWQVPYGTLLLDTLQNILLPLLLNIGLLALALFGYTTFRHFSSRSTESVPSTAVNNELRILRAINEEIVSLLPLGLLVHDQESNRTVISNKIADHLLPHLNLQNITTMAEQHQGIIQATINNELYEIRMFRSQVAPRTQIFIIRDQDREVLVNKKLKQAQRLYEKNQQGRMTFMKNIGDALKEPAQSLAESAAKLNAPEGKQLANQADVLVRLVDEIQLANMLADDSWKSETELFSVQDLIDEVVPSVLPAIKRKGLQLLINNHLKAHDMRRGDRDALRRILLLLMQYAVTSTQLGKITLEVDQDESSEDRLTFRILDTGEGVSIHEMDNLHFPFINQTQNDRYGKADPLAFWLSDQLARKLGGHLNIKTRDGLGTRYSVHIKMLAADPEVEEEEERLLDDVCVMVDVTSAEIRNIVTRQLENWGATCITPDERLISQDYDIFLTDNPSNLTASGLLLSDDESGVREIGPGQLCVNFNMSNAMQEAVLQLIEVQLAQEEVTESPLGGDENAQLHASGYYALFVDTVPDDVKRLYTEAATSDFAALAQTAHRLKGVFAMLNLVPGKQLCETLEHLIREKDVPGIEKYISDIDSYVKSLL” as the sequence, how does the protein production read?
A: failed

Q: For “MLLFWLEFIGIFIAIFVSAELLAKGADELEDFLGQGITGGIILGFLTALPETIFVIVASLEGSFDVALGSAIGGNVLLFTLGIGLVGVFYAFKWRTALQISSEYSVENVFLVLTTIGMLLVLIYGKLNIISGLLLILIYVIYVVYRVAKFRREGMEREKGNLMKPVGFIIAGGVLLVVFSHYFVEYINEIAIMFNVPAIWLSLVIAPIAGELEEKISAFRLVLMSKDGGSLSILSFVGSKIENATVLLGIIGIFTDYELQQALPEYASSLIANMIALYVLFDKRLKTFESVILIGVYVIIVILSFYL”, which protein production is on record?
A: failed

Q: For “MVMNKLILFGSIFFKCWQQNRISISAGYLTYNTMLALVPLVMVVFSVFTFFPIFTEATELLKTFVYDNFAPNAGNVVEEYVELFVSNSQKMGLVSMLGLFIVAVMLISSIDQSLNDIWHNTRKRSLLLSFLLYILILIFAPLLAGASIAITTYIMSFEVFSENGIFSFSHYLLEYAPFLLVWLLFTLVYWIVPNTTVAFRHATIGALFAASFFTLGKQAFIWYVVTFPSYQAIYGTLAVLPIMIVWIHLSWQVVLLGGQFAAVLKEINMLKENER”, which protein production is on record?
A: not failed

Q: Which protein production does the source give for “MNKNLNTFTSMRNDRQLHLYLAWGCPFCHRILASLAITKLDDNISITWMENIKGEAGWKMYFIEDPLFNSDSLKAVYQQLEPTVEHRYSVPLLVDKKNNLLLSTSSPEIVRYVAKGFDDAFSVAYDLIPNKLIKDIDEMNQWLHDKINRAVYLVGFATQQSDYEYKLYELFKALDELEERLKKQLFLFGNQLTESDLYLLATLERFDNIYFCLFKCSLKRIADYPALFRYHNQLRGMESLASTYQPVLTKEHYFMSTMHVLGEARELNPSKIIPIDYYP” here?
A: failed

Q: For “TVDLNMQRRAEETVQKAFQQARSRGLRADQIAVAAVDPRTHFVKVLVGGRDYEESQFNRAIQSQRQPGSAFKPFVYYSAFASGNYTPFSTIDDSPVSYPDGNGTYSPQNYGGSFSGTVSLYDALVTSKNVPAVKLGKAVGLEKVIELCRLLGIESPLQPVISLPLGAVGISPLEMASAYATFASNGWQSETTLILRVTDSQGNVLLDNTPQPRLVLDPWATASLTTVLQGVVNGGTGQAANLGDRPAAGKTGTTSSERDVWFVGYVPQLAAAVWIGNDDYRPMGTGTTGGGDAAPIWRAFMQEALKGEEPQYF”, which protein production is on record?
A: failed

Q: With “MSAVCGGAARMLRTPGRHGYAAEFSPYLPGRLACATAQHYGIAGCGTLLILDPDEAGLRLFRSFDWNDGLFDVTWSENNEHVLITCSGDGSLQLWDTAKAAGPLQVYKEHAQEVYSVDWSQTRGEQLVVSGSWDQTVKLWDPTVGKSLCTFRGHESIIYSTIWSPHIPGCFASASGDQTLRIWDVKAAGVRIVIPAHQAEILSCDWCKYNENLLVTGAVDCSLRGWDLRNVRQPVFELLGHTYAIRRVKMESCPVTQTRSQLTATSAFWVQAVLLPQPTE” as the sequence, how does the protein production read?
A: failed

Q: With “MRSAGEPRWVVPILASPLLWHAARFALVSAYLLGGVVKLFDFAAAVAEQERFGLHPGWLWATLAIVVELGGSLLVLADRLVWLGAGALGVLTFVAMLTANAFWSAPAADRWIQANAFFEHFGLIAGFVLLAMLSDQRRSTS” as the sequence, how does the protein production read?
A: failed

Q: For “MQYIKIHALDNVAVALADLAEGTEVSVDNQTVTLRQDVARGHKFALTDIAKGANVIKYGLPIGYALADIAAGEHVHAHNTRTNL”, which protein production is on record?
A: not failed

Q: For “MSIYDPNPDQSLARIDALEKELANLKASHNTLDIQNKILKGFISLTNVSAGRMLIKATLQKTMEASIHQTGAQLGSLFLLDGDGRVTESILARGATDQSQKKNIVGQVLDKGLAGWVRENKRTGLINDTTKDYRWLKLPDEPYQALSALGVPIVWGDELLGILTLMHSQVNHFTPACATAMEKTAELIALVLNNARIQTKHKQNETLIQQEDDLLNQAILWFPSIIFILDNQGVLLKCGGKYLAQIGLDPKESIGKSIYYLLPEANELKSLTSHALANNIIESVSVQMERVDHGTWFYDAWFSPILDNHGQVSNVVCMLLPA”, which protein production is on record?
A: failed

Q: With “MPLPSLKDQFGALIAASSVSCTQPELDQTNRPVVDLLASWLGDLGFRCEIREVSPGKFNLLASYGSGPGGLVLAGHTDTVPYDEALWSSDPLRLDERDGRWYGLGSCDMKGFFPLAIEALLPLLDQPFRQPLMILATCDEESSMAGARALAESGRPLGRATVIGEPTNLRPIRLHKGVMMERIEILGQSGHSSDPNLGRSALEAMHATIGELMALRGEWQRAWNNPQFSVPQPTLNFGCIHGGDNPNRICGQCSLEFDLRPLPGMQPKQLREAIRQRLRPLAERHQVSIDYQPLFPAVPPFEQAQDSELVRVAERLTGHRAEAVAFGTEAPYFQRLGSETLVLGAGDIACAHQPDEHLELARIEPMVGVLRRLIQHYCLTPAAD” as the sequence, how does the protein production read?
A: failed

Q: For “MNNDISIAALIVTYNPDKRLIESLTKLEKLVDFVVIVDNNSNKSPVLDYISNNIFNDRYLIQLEDNLGIAYALNTGIKYILEKGHYDYILTLDQDTVPLIDDIKELIKRANSIYSNIGIIALISKMDPKIPEFTDVKFPMTSGNIVKSEIFKYIKYREEFFIDSVDFDFDYNVRMHGYRIIQYNYRAIDHNVGITKNGFPYESSERLYYIIRNSTVLFGENKITFRMYIFQAFYWITMGLIHWEILKTAKSSVKGFKDGVNKKLGKNNDI”, which protein production is on record?
A: failed

Q: Which protein production does the source give for “MDALVSTKANSIAYQRSTVIIPAYNEEKRLMPVLYELCEYIRSNSLEWKVMVSIDGDDGTESNVKIMMQEYSFLSYSKGKGRGGKGAAIKRAITSATGEFVILMDADGSVPLKEIVKALDLTNYYDLIIFDRYSNRGNRIPFIRRFPSRGFNKLVRIFLGLKINDTQCGYKIIKREYAQRAFNKITISNAFFDVALLYYLKKERAKYIEIPVEYNYDRNSKFHVVELVLGEGISLIAFRIRNSRFYKYVPEKLISLYYRKFRWILEHHHHHH” here?
A: not failed

Q: Which protein production does the source give for “MNREKLMKMANTVRTGGKGTVRRKKKAVHKTNTTDDKRLQSTLKRIGVNSIPAIEEVNIFKDDVVIQFINPKVQASIAANTWVVSGSPQTKKLQDILPQIISQLGPDNMDNLKKLAEQFQKQASGEGNAASATIQEEDDDDVPELVGETFETAAEEKAPAAAASS” here?
A: failed
